Experimental data: the DeepSol protein solubility set

Test: soluble on expression in E. coli; label from the status in PepcDB or PDB records
In the case of “MGSDKIHHHHHHMKRVVITGMGIVSPFGVGKERNLEGLRETKVTIDRISSFDASNLPVQIAAEVRDFKPEEYINPKLVRRTDRFVHFALVSAKEAVEDAGINFEPYADRTATIIGSGMGGFLTLDSENNKFLSQGPSRVSPFLIPMILIDMASGVVAMEYGLKGPNFSSVSACASSLHAVALGALLIRHGYADVAVVGGTEATIAPLPITGFANMRALSRRNDDPKRASRPFDKDRDGFVMGEGGAVLILEAEEVAKSRGAKILAEIKGVGMTDDAYHFSAPDPEGRGAAEAMKLALKESSLAVEDIDYVSCHATSTPAGDEAELKAIKKVLGEHVKNVAINSSKALIGHLLGAAGASELVLAILQMQNSFVHGMPNLDNPIDEAKGTGLVGKEPVQMEIKNFIKNSFGFGGHNVSIVVGRYES”, the “soluble on expression in E. coli” value is reported as “not soluble”. With “MGSDKIHHHHHHMKSSQPFIYEAHAARVVFGAGSSSQVAAEVERLGAKRALVLCTPNQQAEAERIADLLGPLSAGVYAGAVMHVPIESARDATARAREAGADCAVAVGGGSTTGLGKAIALETGMPIVAIPTTYAGSEVTPVYGLTEAGTKRTGRDPRVLPRTVIYDPALTVGLPRGLSVTSALNAIAHAAEGLYARDANPVMSLMAEEGIRALAAGIPAVFNDPADLDARSQCLYGAWLCGTVLGGVGMALHHKLCHTLGGSFNLPHAETHTIVLPHALAYNAAAVPEAMARIRRATGAGEQSAAATLFDLAQRHGAPVALRDIGMREEDLDRAADIALASPYWNPRPIEREPIRALLQAAYEGVRPD” the “soluble on expression in E. coli” value was “not soluble”. With “MGSDKIHHHHHHMKSTGNIIADTICRTAELGLTITGASDAGDYTLIEADALDYTSTCPECSQPGVFRHHTHRMLIDLPIVGFPTKLFIRLPRYRCTNPTCKQKYFQAELSCADHGKKVTHRVTRWILQRLAIDRMSVHATAKALGLGWDLTCQLALDMCRELVYNDPHHLDGVYVIGVDEHKWSHNRAKHGDGFVTVIVDMTGHRYDSRCPARLLDVVPGRSADALRSWLGSRGEQFRNQIRIVSMDGFQGYATASKELIPSARRVMDPFHVVRLAGDKLTACRQRLQREKYQRRGLSQDPLYKNRKTLLTTHKWLSPRQQESLEQLWAYDKDYGALKLAWLAYQAIIDCYQMGNKREAKKKMRTIIDQLRVLKGPNKELAQLGRSLFKRLGDVLAYFDVGVSNGPVEAINGRLEHLRGIALGFRNLNHYILRCLIHSGQLVHKINAL” the “soluble on expression in E. coli” value was “not soluble”. With “MGSDKIHHHHHHMKSVGQALENQGRVPRNTNDELIQMILADAQVAEFIKTHQLSQREINISMSKFNQFLIERQKFKNKDSQYIAKGYEPILVMNEGYADVSYLETRELIEAQKKQAISDRINLVNLPKSYRNIRMTDFDINNESRMKAMSQLLDFVETYPSYNHKGLYLYGDMGVGKSYLMAAMARELSERKGVSTTLLHFPSFAIDVKNAISSGTVKDEIDAVKSVPILILDDIGAEQATSWVRDEILQVILQHRMLEELPTFFTSNYSFNDLERKWANIKGSDETWQAKRVMERVRYLAIEFHLEGPNRR” the “soluble on expression in E. coli” value was “not soluble”. In the case of “MGSDKIHHHHHHMKTERLISYLRPGRWPSVWCPGCGNGIVLKAFLEAVDDLALPKEKVAVVSGIGCSSRATGYLDFNTLHTLHGRAIAFATGVKLAKPDFEVVVMGGDGDILSIGGNHFIHACRRNIDITVVIFNNMIYGMTGGQVSSTTPQYYQTSTTPLGAFEKPFDAVEIALSAGATFVARSTVYHYDHLVRVLKKALQHRGISVVDVLTNCHTYFGRYNGMPEPHQMMEYFKNNTCFLERPEEGKIKIGIFREEEKEDFLTVYRRLTRKEGAME”, the “soluble on expression in E. coli” value is reported as “not soluble”. In the case of “MGSDKIHHHHHHMKTVTRYACQKCGYQSAKWLGKCPDCAAWNSFVEEVTGGGRKGAASLPAATRPVPICDVASEAETRLSCGISEFDRVLGGGLVSGSLVLIGGDPGIGKSTILLQVMDHLARTAGPVLYVSGEESARQTKMRGERLGIGARELLVLAETSLELILSQVTALAPRALVIDSIQTVFSANLESAPGSVSQVRECAGRLMELAKRNGIPTLLVGHVTKDGSLAGPRVLEHMVDTVLYFEGDPGHAFRILRAVKNRFGSTNEIGVFEMKEGGLSEVRNPSELFLAERPLGVSGSAVVTTIEGSRPLLVELQALVTPSSLGVPRRTTLGVDHNRLALLVAVLDKKVGLHLSGQDIFLNAAGGARLSEPAIDLGMVAALASSHLDKIIDPHTVIVGEVGLAGEVRAITQAETRVREAAKLGFTRAVIPAGSVRQVGDVPGMNVVGVKSLDEALEQLF”, the “soluble on expression in E. coli” value is reported as “not soluble”. In the case of “MGSDKIHHHHHHMKVAVIGAKGQLGTDLVDVLKEEFTVYPLTHEDVDVAVSESLEVLRDIHPDVIINTAAYVRVDDAENHAEKAFAVNAIGALNVARISSEIDAVNIYISTDYVFDGEKGEPYVETDKPNPINVYGASKYAGEILTKNYSEKHYVIRVASLYGKAGASGKGGNFVNWVVDMARKGQELRIVADQFMSPTYTKDVALAVREFLKLRPDYGIYHMVNDGYCSWFEFTKAIFEILDWDVEIQPIKSSELNRLARRPAFSALQNYKLERIGIKMRHWREALRDYLAEKGLV”, the “soluble on expression in E. coli” value is reported as “not soluble”. With “MGSDKIHHHHHHMKVLFRSDSSSQIGFGHIKRDLVLAKQYSDVSFACLPLEGSLIDEIPYPVYELSSESIYELINLIKEEKFELLIIDHYGISVDDEKLIKLETGVKILSFDDEIKPHHCDILLNVNAYAKASDYEGLVPFKCEVRCGFSYALIREEFYQEAKENREKKYDFFICMGGTDIKNLSLQIASELPKTKIISIATSSSNPNLKKLQKFAKLHNNIRLFIDHENIAKLMNESNKLIISASSLVNEALLLKANFKAICYVKNQESTATWLAKKGYEVEYKY” the “soluble on expression in E. coli” value was “not soluble”. For “MGSDKIHHHHHHMKVLVAMDEFHGIISSYQANRYVEEAVASQIETADVVQVPLFNGRHELLDSVFLWQSGQKYRIPVHDADMNEVEGVYGQTDTGMTVIEGNLFLKGKKPIVERTSYGLGEMIKHALDNDAKHVVISLGGIDSFDAGAGMLQALGAQFYDDEGRVVDMRQGAGVIKYIRRMDMSNLHPKMETARIQVMSDFSSRLYGKQSEIMQTYDAHQLNHNQAAEIDNLIWYFSELFKSELKIAIGPVERGGAGGGIAAVLNGLYQAEILTSHALVDQLTHLENLVEQADLIIFGEGLNENDQLLETTTLRIAELCHKHQKVAIAICATAEKFDLFESQGVTAMFNTFIDMPETYTDFKMGLQIRHYTVQSLKLLKTHFNVEV”, the “soluble on expression in E. coli” value was “not soluble”. In the case of “MGSDKIHHHHHHMKVRFLQISDLHFQFQNYDTIVMRDKLLDFIEVLRRESDFDFLLLTGDIAHKGDVYNEDVKEYLNGIIKSMGLSKNNVHLVPGNHDISRDMTRTLLIDSIMKSPNPSEMLDKLDQKATNILVEGQRKFFDFYEDFMGVKYPEEDLHFLYQSEKYNVLSINTCLLSDKKGEEGTLLTAQMKLYKAIRKMNKEKNKGKVLNIAIGHHTLGCIESSERESIKAHFDDYFIDLYLAGHVHDSSFNITANTNENPFLELVSGAIIKDEYATPEFISVDVNLDNGETEVTYYIWNTEYKYWSKNNQGGRRLQEGKLNYKINRLESLIEKEIEDNDDKIDEDEFKSFIIDFHEYRESYKTFTSNFDNQIGLDKKFYDMKSGETFKRKFDSYSEYFGVINHIMDSTSYVSADKKELIAETIVDKYLEFHNQYNNGDEIFVKIVNEIYLECHSVLPYSKALTKKYIKILTCWCIYECEIFNDNKRSVKND”, the “soluble on expression in E. coli” value is reported as “not soluble”. With “MGSDKIHHHHHHMKVVIVGNGPGGVELAKQLSEEHEVTIVERETVPYYTKPMLSHYVAGLAEEKSLFPYPIDWYEKKGIKLLLGTTAKRIDAEKKVLETDRGTLEYDVLVLATGAKPRTLKIPGWERMYTLRTIEDAKRLKGAVEREKDLLIIGGGFIGLEIAGNLSKQGIKVKVVEKMTRLMGLDEELTERIKGELEKHGVEFYLGRDVERIENDVLVTDKEEIPARVILCSIGIVPEVSLAKESGLDVNRGILVDKTFRTSKPDIYAIGDCAEHEGIICGTAKAAMAHAKVLANTLKGIPDEYDFHFRSSYFKFGDFPIAIVGELTDRGEWIDSETKSFYRDEKIVGVVVLSDVRKAREWEERLRSTR” the “soluble on expression in E. coli” value was “not soluble”. In the case of “MGSDKIHHHHHHMKYDIPTMTAEAVSLLKSLISIPSISREETQAADFLQNYIEAEGMQTGRKGNNVWCLSPMFDLKKPTILLNSHIDTVKPVNGWRKDPFTPREENGKLYGLGSNDAGASVVSLLQVFLQLCRTSQNYNLIYLASCEEEVSGKEGIESVLPGLPPVSFAIVGEPTEMQPAIAEKGLMVLDVTATGKAGHAARDEGDNAIYKVLNDIAWFRDYRFEKESPLLGPVKMSVTVINAGTQHNVVPDKCTFVVDIRSNELYSNEDLFAEIRKHIACDAKARSFRLNSSRIDEKHPFVQKAVKMGRIPFGSPTLSDQALMSFASVKIGPGRSSRSHTAEEYIMLKEIEEAIGIYLDLLDGLKL”, the “soluble on expression in E. coli” value is reported as “not soluble”. In the case of “MGSDKIHHHHHHMKYYYKDGEGFNSKGVFIRVGSTKRVASFDEIQRMIRSHSSNDFELISIDRDDLTFEYIESRFKEKGIKFDVYALSLIGKDNKYNNAALLLSDQNPTISKFAVFQGTDVSVFLDKKEFTGSILKQLDEILYFASLSNRKRITISGKPGREEYLDIPKRALREAIVNCYCHRDYTLSGDVKIEFYDDRVQIFSPGSLPDGLTLENIKMGMVAKRNKIIVNTLDKIDVIENYASGVRRIFEDYADFTKQPEYYISNNGVIVTLFNRNYEAQNEAQNEAQILKLDNQKRIEKILELIKENKNITRSNLKDILGVSKSTIERDISKLKEEDKLEYIGSSRNGYWKVKNN”, the “soluble on expression in E. coli” value is reported as “not soluble”. In the case of “MGSDKIHHHHHHMLAGFAAAKAPEIDPALVDTLVAQIMQQADRHAEQSQKPDGQAIRNDAVRRLQTLEVLKNRALKEGLDKDKDVQNRFKIAEASFYAEEYVRFLERSETVSESALRQFYERQIRMIKLQQVSFATEEEARQAQQLLLKGLSFEGLMKRYPNDEQAFDGFIMAQQLPEPLASQFAAMNRGDVTRDPVKLGERYYLFKLSEVGKNPDAQPFELVRNQLEQGLRQEKARLKIDAILEENGVKP”, the “soluble on expression in E. coli” value is reported as “not soluble”. With “MGSDKIHHHHHHMLAQVPNTISLQQELTPLLQHEWLPHINQRDYHSGSQGGWDVLALRCAEEYHAAHPILQAFSISAANEWDNLPALESSPTLLDFIQSLACPVKSVRFMRLHAGAEIKPHRDQGLSLEQGEARLHLPLQTHDQLYFYVNDQRVPMQAGELWYINADQSHWVANKGSSARINLVIDCKVNSWLRELIHGAKIKA” the “soluble on expression in E. coli” value was “not soluble”. In the case of “MGSDKIHHHHHHMLDCHEDTLVILAKNIAVEMHYHHAIQLVLSLDKPYDAVLDHQPIESVKGFLIDSDIPHACQSADSTVLVISVDASSSKGRLLKSHLLKRTFILIDELFSAEAIDEFLNFYWRCCDTSQHEFDPLYFLHKLSHEQRNITPFDARLLIAIDFINQDISQIIKVIDIARHISLSESRLRHLFTEQVGIPLTKYVLWVRMKVALREMLKPGVTLSDAAHQAGFTDHAHFTRTFRRMFGVSPSLLLKYGQFLQIFGL”, the “soluble on expression in E. coli” value is reported as “not soluble”. With “MGSDKIHHHHHHMLDHLCVNMLSSCPRCASSSGNRASRRYPMRINADFTRRAAVHFDQTDWVPSPAPGVERKMLDRIGAEVARATTIVRFAPGSAFSAHTHDGGEEYLVLDGVFQDELGDFPVGSYVRNPPTSSHTPATEPGATILVKLHQFDPADRTEVRRSINGKSDETLFSDSHEEVRLESWAAGAQVTRDLPGGIEVFVLEGGFQEGGETFSRWDWLRLPPGARLDLTAGAEGARVWVKSGHLAAMV” the “soluble on expression in E. coli” value was “not soluble”. With “MGSDKIHHHHHHMLDRKLLESLGGWQGYGVERVEWPEDPGRTLSIYLKPTAKVMLCEQCGARCRQVHETTVRRVRDLPLFEYRVVLHVPRRRLWCEQCGGPRLERLAWLGRYQRVTDRLAQACSQLLQSSNVQAVARFFELGWHTVKTLDKARLRASVREPDWSKIEYLAMDEFALHKGHRYATVVVDPIGRQVLWIGPGRSRETARAFFEQLPPGAAQRIKAVAIDMTTAYELEIQAHSPQAEIVYDLFHVVAKYGREVIDRVRVDQANQLRQDRPARRIIKSSRWLLLRNRDNLDRQQAVRLDELLQANQPLLTVYVLRDELKRLWFYQRPAWARQAWNHWYEQAEQSGIAALNTFAQRLKGYLHGILARCRHPLNTSIVEGINNTIKVIKRRAYGYRDQEYFFLKIRAAFPGNAR” the “soluble on expression in E. coli” value was “not soluble”.
